This note sets out measurements from the nanobody polyreactivity screen of Harvey et al. (2022).

This series in a line: yeast display, Sf9 membrane polyspecificity reagent, FACS + sequencing; frameworks hold sequencing errors. Put shortly: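 Galactose induction of a Saccharomyces cerevisiae BJ5465 synthetic nanobody display library ran 36–48 hours. The cells were then stained for 1 hour at 4 °C with 10% biotinylated, detergent-solubilized Sf9 membrane reagent, pulled down on streptavidin microbeads and FACS-sorted into low and high (top ~1%) gates on expression and reagent-binding fluorescence. Labels for polyreactivity follow the gate of origin.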
Turning to “QVQLVESGGGLVQAGGSLRLSCAASGSIFRRNAMGWYRQAPGKERELVAAINSGGTTYYADSVKGRFTNSRDNAKNTVYLQMNSLKPEVTAVYYCATVYRGWYYYWGQGTQVTVSS”, the “polyreactivity (PSR sort gate)” value was “high polyreactivity”.

For “QVQLVESGGGLVQAGGSLRLSCAASGSIFRRNAMGWYRQAPGKERELVAAISIRGGSTYYADSVKGRFTISRDNAKNTVYLQMNSLKPEDTAVYYCNAKFRKADYDYWGQGTQVTVSS”, the “polyreactivity (PSR sort gate)” value was “high polyreactivity”.

On to “QVQLVESGGGLVQAGGSLRLSCAASGSIFRRNAMGWYRQAPGKERELVATITSDGSTDYADSVKGRFTISRDNAKNTFYLQMISLKPEDTAVYYCAVAYLWRPYDFREFDYWGQGTQVTLSS”, for which the “polyreactivity (PSR sort gate)” value is “low polyreactivity”.

For the sequence “QVQLVESGGGLVQAGGSLRLSCAASGSIFRRNAMGWYRQAPGTERELVAAISLRGGSTYYADSVKGRFTISRDLAKNTVYLQMISLKTQDTAVYYCADDEFDDYDWYRGYDTTYDYWGQGTQVTGSS”, the “polyreactivity (PSR sort gate)” value is reported as “low polyreactivity”.

For “QVQLVESGGGLVQAGGSLRLSCAASGSIFRRYAMGWYRQAPGKEREFVAAITGSGGRTYYADSVKGRFTISRDNAKNTVYLQMNSLKPEDTAVYYCAARRRDRVTYYYWGQGTQVTVSS”, the “polyreactivity (PSR sort gate)” value is on record as “high polyreactivity”.

As to “QVQLVESGGGLVQAGGSLRLSCAASGSIFRRYAMGWYRQAPGKERELVAGISSGGYTNYADSVKGRFTISRDNAKNTVYLQMNRLKPEDTAVYYCAAKQYRYVRYRPVDYWGQGTQVTVSS”, the “polyreactivity (PSR sort gate)” value was “high polyreactivity”.

Turning to “QVQLVESGGGLVQAGGSLRLSCAASGSIFRRYAMGWYRQAPGKERELVATITSSVCRTYYADSVKARFTISRDTAKNTVYLQMNSLKPEETAVYFCAVYVGLWGAGGKGDYWGQGTQVTVSS”, the “polyreactivity (PSR sort gate)” value is “low polyreactivity”.

For the sequence “QVQLVESGGGLVQAGGSLRLSCAASGSIFRRYAMGWYRQEPGKEMEFVAAITGSGGRTYYADSVKGRITISRDNAKNTVYLQMNSLKPEDTAVYYCAARRRDRVTYYYWGQGTQVTVSS”, the “polyreactivity (PSR sort gate)” value is listed as “high polyreactivity”.

In the case of “QVQLVESGGGLVQAGGSLRLSCAASGSIFRRYAMGWYRQPPGKERELVASISSRGTRTYYADSVKGRFTISRDNAKNTVYLQMNSLKPEDTAVYYCAASYYTPYDYWGQGTQVTVSS”, the “polyreactivity (PSR sort gate)” value was “high polyreactivity”.

Consider “QVQLVESGGGLVQAGGSLRLSCAASGSIFRSYAIGWYRQAPGKERELVASISRRGGSTYYADSVKGRFTISRDNAKNTVYLQMKSLKPEDTAVYYCAAVRYNSRVSTTPSEMYYWGQGTQVTVSS”, for which the “polyreactivity (PSR sort gate)” value is recorded as “low polyreactivity”.

For the sequence “QVQLVESGGGLVQAGGSLRLSCAASGSIFRSYALGGYRQAPGKERELVASISRRGGSTYYADSVKGRFTISRDNAKNTVYLQMNSLKPQDTAVYYCAAVRYNSRGSTTPSEMYYWGQGTQVTVSS”, the “polyreactivity (PSR sort gate)” value was “low polyreactivity”.

In the case of “QVQLVESGGGLVQAGGSLRLSCAASGSIFRSYAMGWYRQAPGKERELVAAISSGGRTKYADSVKGRFTISRDNAKNTVYLQMNSLKPEDTAVYYCAARVNVKYYGFYYWGQGTQVTVSS”, the “polyreactivity (PSR sort gate)” value was “high polyreactivity”.

Turning to “QVQLVESGGGLVQAGGSLRLSCAASGSIFRSYAMGWYRQAPGKERELVAAITSSSGSTYYADSVKGRFTISRDNAKNTVYLQMNSLKPEDTAVYYCNAPYWKSRFRAYYHWGQGTQVTVSS”, the “polyreactivity (PSR sort gate)” value is recorded as “high polyreactivity”.

As to “QVQLVESGGGLVQAGGSLRLSCAASGSIFRTNTMGWYRQAPGKERELVAAITAIGDSTYYADSVKGRFTISRDNAKNTVYLQMNSLKPEDTAVYYCAAEKVSWGYHFYSSYDYWGQGTQVTVSS”, the “polyreactivity (PSR sort gate)” value is “low polyreactivity”.

Take “QVQLVESGGGLVQAGGSLRLSCAASGSIFRTYAMGWYIQAPGKERELVAAIRRSGGRTYYADSVKGRFTISRDNAKNTVYLQMNSLKPEDTAVYYCNKRVSKQSKYDYWGQGTQVTVSS”: the “polyreactivity (PSR sort gate)” value is “high polyreactivity”.

Take “QVQLVESGGGLVQAGGSLRLSCAASGSIFRTYAMGWYRQAPGKEWELVAAISGSGSRTYYADSVKGRFTISRDNAKNTVYLQMNSLKPEDTAVYYCAAQTFAYKVFFLYDYWGQGTQVTVSS”: the “polyreactivity (PSR sort gate)” value was “low polyreactivity”.

Consider “QVQLVESGGGLVQAGGSLRLSCAASGSIFRTYVMGWYRQAPGKERELVAAISSSGGRTYYADSVKGRFTISRDNAKNTVYLLMNSLKPEDTAVYYCAAPRTSTRYRLTLQGVNQYDYWGQGTQVTVSS”, for which the “polyreactivity (PSR sort gate)” value was “high polyreactivity”.

As for “QVQLVESGGGLVQAGGSLRLSCAASGSIFRVYAMGWYRQAPGKERELVAAITNGGNTNYADSVKGRFTISRDNAKNTVYLQMNSLKPEDTAVYYCAATLHRYWYRLYYYWGQGTQVTVSS”, the “polyreactivity (PSR sort gate)” value is on record as “high polyreactivity”.

Regarding “QVQLVESGGGLVQAGGSLRLSCAASGSIFRVYAMGWYRQAPGKERELVATISGSAGRTYYADSVKGRFTISRDNAKNTVYLQMNSLKPEDTAVYYCAARWYKEYYWGQGTQVTVSS”, the “polyreactivity (PSR sort gate)” value is reported as “high polyreactivity”.

“QVQLVESGGGLVQAGGSLRLSCAASGSIFRWNAMGWYRQAPGKERELVAAISKSGGRRYYADSVKGRFTISRDNAKNTVYLQMNSVKPEDTAVYYCAAGYTTTQYYGPQYDYWGQGTQVTVSS”: the “polyreactivity (PSR sort gate)” value was “high polyreactivity”.

As to “QVQLVESGGGLVQAGGSLRLSCAASGSIFRWNAMGWYRQAPGKERELVAGIRWDSGSTYYADSVKGRFTISRDNAKNTVYLQMNSLKPEDTAVYYCAADLFDFLLIDGFAVVTYGYWGQGTQVNVSS”, the “polyreactivity (PSR sort gate)” value is recorded as “low polyreactivity”.

With “QVQLVESGGGLVQAGGSLRLSCAASGSIFRWYAMGWSRQAPGKERELVAAISKSGGTTYYADSVKGRFTISRDNAKNTVYLQMNSLKPEDTAVYYCAARRYPYGGYGYRYDYWGQGTQVTVSS”, the “polyreactivity (PSR sort gate)” value was “high polyreactivity”.

As to “QVQLVESGGGLVQAGGSLRLSCAASGSIFRWYAMGWSRQAPGKERQLVAAIRGNGASTYYADSVKGRFTISRDNAKNTVYLQMNSLKPEDTAVYYCAAYPSFYHSQYGYWGQGTQVTVSS”, the “polyreactivity (PSR sort gate)” value was “high polyreactivity”.

“QVQLVESGGGLVQAGGSLRLSCAASGSIFRWYAMGWYRQAPGKERELVAGISSTGGSTYYADSVKGRFTISRDNAKNTVYLQMNSLKPEDTAVYYCAVVSYPSAFRRYNYWGQGTQVTVSS”: the “polyreactivity (PSR sort gate)” value was “high polyreactivity”.

With “QVQLVESGGGLVQAGGSLRLSCAASGSIFRYNAMGWYRKAPGKEREFVAIISYSGVRTYYADSVKGRFTISRDNAKNTVYLQMNSLKPEDTAVYYCAADFKQKGHRTRTTYWGQGTKVTVSS”, the “polyreactivity (PSR sort gate)” value is reported as “high polyreactivity”.

As to “QVQLVESGGGLVQAGGSLRLSCAASGSIFRYNAMGWYRKAPGKERELVAAIRSGGSTYYADSVKGRFTISRDNAKNTVYLQMNSLKPEDTAVYYCNARRYVGYDYWGQGTQVTVSS”, the “polyreactivity (PSR sort gate)” value was “high polyreactivity”.

On to “QVQLVESGGGLVQAGGSLRLSCAASGSIFRYNAMGWYRQAPGKEREFVAAITRSGGSTYADSVKGRFTISRDNAKNTVYLQMNSLKPEDTAVYYCAATFKWYSHTKPRFDYWGQGTQVTVSS”, for which the “polyreactivity (PSR sort gate)” value is reported as “low polyreactivity”.

For the sequence “QVQLVESGGGLVQAGGSLRLSCAASGSIFRYNAMGWYRQAPGKERELVAAIDWSGGTYYADSVKGRFTISRDNAKNTVYLQMNSLKPEDTAVYYCNARGSKYSSYWGYDYWGQGTQVTVSS”, the “polyreactivity (PSR sort gate)” value was “low polyreactivity”.

On to “QVQLVESGGGLVQAGGSLRLSCAASGSIFRYNAMGWYRQAPGKERELVAAISTSGGSTYYADSVKGRFTISRDNAKNTVYLQMNSLKPEDTAVYYCNKLRNSDSRGIVWYGYWGQGTQVTVSS”, for which the “polyreactivity (PSR sort gate)” value is “high polyreactivity”.

Regarding “QVQLVESGGGLVQAGGSLRLSCAASGSIFRYNAMGWYRQAPGKERELVAAITSGDSTYYADSVKGRFTISRDNAKNTVYLQMISLKPEDTAVYYCAADDWRPFDGYYPLKSEREYWGQGTEVTVSS”, the “polyreactivity (PSR sort gate)” value is recorded as “low polyreactivity”.
